Source: the supplement of paper PMC12458215
± gives the uncertainty stated by the source.

Tested on: HEK293T
Assay: plasma membrane surface immunostaining intensity (anti-HA, deep receptor scanning) (arbitrary fluorescence units); higher = higher plasma membrane expression

| Sequence | plasma membrane surface immunostaining intensity (GPCR class: A) | plasma membrane surface immunostaining intensity (GPCR class: A (Olfactory)) |
| --- | --- | --- |
| MDPEETSVYLDYYYATSPNSDIRETHSHVPYTSVFLPVFYTAVFLTGVLGNLVLMGALHFKPGSRRLIDIFIINLAASDFIFLVTLPLWVDKEASLGLWRTGSFLCKGSSYMISVNMHCSVLLLTCMSVDRYLAIVWPVVSRKFRRTDCAYVVCASIWFISCLLGLPTLLSRELTLIDDKPYCAEKKATPIKLIWSLVALIFTFFVPLLSIVTCYCCIARKLCAHYQQSGKHNKKLKKSIKIIFIVVAAFLVSWLPFNTFKFLAIVSGLRQEHYLPSAILQLGMEVSGPLAFANSCVNPFIYYIFDSYIRRAIVHCLCPCLKNYDFGSSTETSDSHLTKALSTFIHAEDFARRRKRSVSL [GPR15] | 342 ± 19 |  |
| MSGENVTKVSTFILVGLPTAPGLQYLLFLLFLLTYLFVLVENLAIILIVWSSTSLHRPMYYFLSSMSFLEIWYVSDITPKMLEGFLLQQKRISFVGCMTQLYFFSSLVCTECVLLASMAYDRYVAICHPLRYHVLVTPGLCLQLVGFSFVSGFTISMIKVCFISSVTFCGSNVLNHFFCDISPILKLACTDFSTAELVDFILAFIILVFPLLATILSYWHITLAVLRIPSATGCWRAFSTCASHLTVVTVFYTALLFMYVRPQAIDSQSSNKLISAVYTVVTPIINPLIYCLRNKEFKDALKKALGLGQTSH [OR6B2] |  | 153 ± 9.6 |
| MDLKNGSLVTEFILLGFFGRWELQIFFFVTFSLIYGATVMGNILIMVTVTCRSTLHSPLYFLLGNLSFLDMCLSTATTPKMIIDLLTDHKTISVWGCVTQMFFMHFFGGAEMTLLIIMAFDRYVAICKPLHYRTIMSHKLLKGFAILSWIIGFLHSISQIVLTMNLPFCGHNVINNIFCDLPLVIKLACIETYTLELFVIADSGLLSFTCFILLLVSYIVILVSVPKKSSHGLSKALSTLSAHIIVVTLFFGPCIFIYVWPFSSLASNKTLAVFYTVITPLLNPSIYTLRNKKMQEAIRKLRFQYVSSAQNF [OR4L1] |  | 549 ± 220 |
| MEEENATLLTEFVLTGFLYQPQWKIPLFLAFLVIYLITIMGNLGLIAVIWKDPHLHIPMYLLLGNLAFVDALLSSSVTLKMLINFLAKSKMISLSECKIQLFSFAISVTTECFLLATMAYDRYVAICKPLLYPAIMTNGLCIRLLILSYVGGLLHALIHEGFLFRLTFCNSNIIQHFYCDIIPLLKISYTDSSINFLMVFIFAGSIQVFTIGTVLISYIFVLYTILKKKSVKGMRKAFSTCGAHLLSVSLYYGPLAFMYMGSASPQADDQDMMESLFYTVIVPLLNPMIYSLRNKQVIASFTKMFKRNDV [OR5H14] |  | 116 ± 19 |
| MTSNFSQPVVQLCYEDVNGSCIETPYSPGSRVILYTAFSFGSLLAVFGNLLVMTSVLHFKQLHSPTNFLIASLACADFLVGVTVMLFSMVRTVESCWYFGAKFCTLHSCCDVAFCYSSVLHLCFICIDRYIVVTDPLVYATKFTVSVSGICISVSWILPLTYSGAVFYTGVNDDGLEELVSALNCVGGCQIIVSQGWVLIDFLLFFIPTLVMIILYSKIFLIAKQQAIKIETTSSKVESSSESYKIRVAKRERKAAKTLGVTVLAFVISWLPYTVDILIDAFMGFLTPAYIYEICCWSAYYNSAMNPLIYALFYPWFRKAIKLILSGDVLKASSSTISLFLE [TAAR8] | 352 ± 170 |  |
| MRTLNTSAMDGTGLVVERDFSVRILTACFLSLLILSTLLGNTLVCAAVIRFRHLRSKVTNFFVISLAVSDLLVAVLVMPWKAVAEIAGFWPFGSFCNIWVAFDIMCSTASILNLCVISVDRYWAISSPFRYERKMTPKAAFILISVAWTLSVLISFIPVQLSWHKAKPTSPSDGNATSLAETIDNCDSSLSRTYAISSSVISFYIPVAIMIVTYTRIYRIAQKQIRRIAALERAAVHAKNCQTTTGNGKPVECSQPESSFKMSFKRETKVLKTLSVIMGVFVCCWLPFFILNCILPFCGSGETQPFCIDSNTFDVFVWFGWANSSLNPIIYAFNADFRKAFSTLLGCYRLCPATNNAIETVSINNNGAAMFSSHHEPRGSISKECNLVYLIPHAVGSSEDLKKEEAAGIARPLEKLSPALSVILDYDTDVSLEKIQPITQNGQHPT [DRD1] | 1460 ± 310 |  |
| MLGPAYNHTMETPASFLLVGIPGLQSSHLWLAISLSAMYITALLGNTLIVTAIWMDSTRHEPMYCFLCVLAAVDIVMASSVVPKMVSIFCSGDSSISFSACFTQMFFVHLATAVETGLLLTMAFDRYVAICKPLHYKRILTPQVMLGMSMAVTIRAVTFMTPLSWMMNHLPFCGSNVVVHSYCKHIALARLACADPVPSSLYSLIGSSLMVGSDVAFIAASYILILRAVFDLSSKTAQLKALSTCGSHVGVMALYYLPGMASIYAAWLGQDIVPLHTQVLLADLYVIIPATLNPIIYGMRTKQLLEGIWSYLMHFLFDHSNLGS [OR52I1] |  | 157 ± 16 |
